# In article doi:10.1101/2023.07.22.550149:
# Experiments:
# Assay in all cases: cryo-EM structure
# [1] = target: H. catenoides kalium channelrhodopsin (HcKCR1), wildtype (Hyphochytrium catenoides)
# [2] = target: higher potassium selective channelrhodopsin (B1ChR2) from Bilabrum sp (Bilabrum sp)
# [3] = target: sodium selective channelrhodopsin HcCCR from H. catenoides (Hyphochytrium catenoides)
substance,measurement,setting,value
"H. catenoides kalium channelrhodopsin (HcKCR1), wildtype (natural protein)",stoichiometry N,[1],3
higher potassium selective channelrhodopsin (B1ChR2) from Bilabrum sp (natural protein),stoichiometry N,[2],3
sodium selective channelrhodopsin HcCCR from H. catenoides (natural protein),stoichiometry N,[3],3
